# Source: paper PMC3477848 (Biochemistry, 2012)
# Like-named read-outs stand apart in the source and are kept apart here.
# Key:
# Assay in all cases: fluorescence anisotropy
# [1] = target: T1, Dpo1 exo- (SsoDpo1, B-family DNA polymerase) (Sulfolobus solfataricus, UniProt P26811 1-882, D231A;D318A)
# T1 sequence: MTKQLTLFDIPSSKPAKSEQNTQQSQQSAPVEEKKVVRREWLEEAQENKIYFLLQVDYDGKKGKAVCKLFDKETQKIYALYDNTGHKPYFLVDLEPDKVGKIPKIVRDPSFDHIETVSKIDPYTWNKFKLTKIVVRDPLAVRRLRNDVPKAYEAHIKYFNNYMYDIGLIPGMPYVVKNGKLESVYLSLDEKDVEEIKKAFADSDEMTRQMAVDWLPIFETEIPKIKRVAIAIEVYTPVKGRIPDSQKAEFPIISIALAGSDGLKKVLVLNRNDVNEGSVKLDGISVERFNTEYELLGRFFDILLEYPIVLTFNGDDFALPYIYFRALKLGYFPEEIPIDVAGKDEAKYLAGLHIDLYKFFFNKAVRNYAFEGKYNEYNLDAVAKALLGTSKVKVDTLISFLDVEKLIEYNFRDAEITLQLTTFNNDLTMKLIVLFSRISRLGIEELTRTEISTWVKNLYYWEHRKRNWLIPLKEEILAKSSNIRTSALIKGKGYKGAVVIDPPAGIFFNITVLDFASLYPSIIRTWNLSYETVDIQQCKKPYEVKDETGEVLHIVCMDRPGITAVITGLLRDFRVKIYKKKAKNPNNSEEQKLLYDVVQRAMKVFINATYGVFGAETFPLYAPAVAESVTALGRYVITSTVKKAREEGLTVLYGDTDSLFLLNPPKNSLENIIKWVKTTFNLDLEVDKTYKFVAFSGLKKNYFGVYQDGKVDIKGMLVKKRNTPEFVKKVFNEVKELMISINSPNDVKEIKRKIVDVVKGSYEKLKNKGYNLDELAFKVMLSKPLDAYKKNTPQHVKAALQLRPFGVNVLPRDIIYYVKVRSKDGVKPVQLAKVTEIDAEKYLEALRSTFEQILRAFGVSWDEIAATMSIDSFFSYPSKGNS
# [2] = target: T1, Dpo1 exo- (SsoDpo1, B-family DNA …); remark: listed apart in the source
# [3] = target: T1, Dpo1 exo- (SsoDpo1, B-family DNA …); remark: listed apart in the source
# [4] = target: T2, Dpo4 (SsoDpo4, Y-family DNA polymerase) (Sulfolobus solfataricus, UniProt Q97W02 1-352)
# T2 sequence: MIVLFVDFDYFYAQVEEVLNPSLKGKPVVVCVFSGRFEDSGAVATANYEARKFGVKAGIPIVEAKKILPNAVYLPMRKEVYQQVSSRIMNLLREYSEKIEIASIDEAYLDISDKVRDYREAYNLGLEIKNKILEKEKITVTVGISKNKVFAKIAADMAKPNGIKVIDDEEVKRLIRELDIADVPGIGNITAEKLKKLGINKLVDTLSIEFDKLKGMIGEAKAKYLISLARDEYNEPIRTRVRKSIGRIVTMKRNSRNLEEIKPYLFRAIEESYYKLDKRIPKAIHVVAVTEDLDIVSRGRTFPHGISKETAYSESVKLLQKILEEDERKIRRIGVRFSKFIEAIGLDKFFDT
# [5] = target: T1, Dpo1 exo- (SsoDpo1, B-family DNA …); remark: listed apart in the source
# [6] = target: T2, Dpo4 (SsoDpo4, Y-family DNA polymerase); remark: listed apart in the source
# [7] = target: T2, Dpo4 (SsoDpo4, Y-family DNA polymerase); remark: listed apart in the source
# [8] = target: T2, Dpo4 (SsoDpo4, Y-family DNA polymerase); remark: listed apart in the source
binder,measurement,setting,value
"TTTTTTTTTTCCCGGGCCGGCGTTTCGCCGGCCCGGG (structured_DNA) [37-nt hairpin primer-template, 5'-Cy3]",Kd,[1],198 ± 26 nM
same,Kd,[2],97 ± 3 nM
same,Kd,[3],144 ± 3 nM
same,Kd,[4],140 ± 66 nM
same,Kd,[5],170 ± 23 nM
same,Kd,[6],214 ± 3 nM
same,Kd,[7],164 ± 9 nM
same,Kd,[8],133 ± 26 nM
